24 sequences from US20140087426 can be followed below.

What all share (experiment): cell_activity
In data set [1] the test system is miR-1-2 TALEN right (synthetic (Xanthomonas TALE)). The following applies: 34/41, as pair.
The subject of data set [2] is tnikb TALEN left (synthetic (Xanthomonas TALE)). The following applies: 18/39, as pair.
Data set [3] concerns kiss1r TALEN left (synthetic (Xanthomonas TALE)). The following applies: 22/43, as pair.
Data set [4] relates to kiss1r TALEN right (synthetic (Xanthomonas TALE)). The following applies: 22/43, as pair.
The subject of data set [5] is miR-214 TALEN right (synthetic (Xanthomonas TALE)). The settings on record: 25/47, as pair.
The subject of data set [6] is gnrh3 TALEN left (synthetic (Xanthomonas TALE)). The following applies: 6/33, as pair, 21-bp spacer.
Data set [7] concerns spexin TALEN left (synthetic (Xanthomonas TALE)). The following applies: 33/36, as pair.
Data set [8] has as its system kiss2r TALEN right (synthetic (Xanthomonas TALE)). The settings on record: 3/45, as pair, 21-bp spacer.
The test system of data set [9] is kiss2 TALEN left (synthetic (Xanthomonas TALE)). The settings on record: 69/69, as pair.
Data set [10] has as its system miR-1-2 TALEN left (synthetic (Xanthomonas TALE)). The following applies: 34/41, as pair.
Data set [11] has as its system miR-451 TALEN left (synthetic (Xanthomonas TALE)). The settings on record: 2/47, as pair, 22-bp spacer.
For data set [12], the system named is kiss1 TALEN right (synthetic (Xanthomonas TALE)). The settings on record: 32/40, as pair.
In data set [13] the test system is kiss2r TALEN left (synthetic (Xanthomonas TALE)). The settings on record: 3/45, as pair, 21-bp spacer.
In data set [14] the test system is miR-1-1 TALEN left (synthetic (Xanthomonas TALE)). The settings on record: 64/66, as pair.
Data set [15] has as its system miR-214 TALEN left (synthetic (Xanthomonas TALE)). The settings on record: 25/47, as pair.
Data set [16] deals with kiss1 TALEN left (synthetic (Xanthomonas TALE)). The following applies: 32/40, as pair.
Data set [17] deals with gria3a TALEN left (synthetic (Xanthomonas TALE)). The following applies: mean of 3; with right TALEN, zebrafish embryos; Table 4: 49/55.
Data set [18] concerns gria3a TALEN left -A7 (synthetic (Xanthomonas TALE)). The following applies: mean of 3, nearly abolished.
In data set [19] the test system is gria3a TALEN left -C1 (synthetic (Xanthomonas TALE)). The settings on record: mean of 3.
The test system of data set [20] is gria3a TALEN left -G2 (synthetic (Xanthomonas TALE)). The following applies: mean of 3, nearly abolished.
Data set [21] concerns gria3a TALEN left -T15 (synthetic (Xanthomonas TALE)). The following applies: mean of 3.
Data set [22] deals with gria3a TALEN left -T8 (synthetic (Xanthomonas TALE)). The settings on record: 0/64 in 3.
In data set [23] the test system is gria3a TALEN left A7C (synthetic (Xanthomonas TALE)). The following applies: mean of 3.
Data set [24] deals with gria3a TALEN left A7G (synthetic (Xanthomonas TALE)). The following applies: mean of 3.
For data set [25], the system named is gria3a TALEN left A7T (synthetic (Xanthomonas TALE)). The settings on record: mean of 3.
Data set [26] relates to gria3a TALEN left C1A (synthetic (Xanthomonas TALE)). The settings on record: mean of 3.
Data set [27] relates to gria3a TALEN left C1G (synthetic (Xanthomonas TALE)). The following applies: mean of 3.
For data set [28], the system named is gria3a TALEN left C1T (synthetic (Xanthomonas TALE)). The following applies: mean of 3.
Data set [29] has as its system gria3a TALEN left CLRA (synthetic (Xanthomonas TALE)). The settings on record: mean of 3.
In data set [30] the test system is gria3a TALEN left CLRG (synthetic (Xanthomonas TALE)). The settings on record: mean of 3.
In data set [31] the test system is gria3a TALEN left CLRT (synthetic (Xanthomonas TALE)). The following applies: mean of 3.
Data set [32] relates to gria3a TALEN left G2A (synthetic (Xanthomonas TALE)). The settings on record: mean of 3.
The test system of data set [33] is gria3a TALEN left G2C (synthetic (Xanthomonas TALE)). The following applies: mean of 3.
The test system of data set [34] is gria3a TALEN left G2T (synthetic (Xanthomonas TALE)). The following applies: mean of 3.
For data set [35], the system named is gria3a TALEN left T15A (synthetic (Xanthomonas TALE)). The following applies: mean of 3.
Data set [36] deals with gria3a TALEN left T15C (synthetic (Xanthomonas TALE)). The following applies: mean of 3.
Data set [37] has as its system gria3a TALEN left T15G (synthetic (Xanthomonas TALE)). The following applies: mean of 3.
Data set [38] concerns gria3a TALEN left T8A (synthetic (Xanthomonas TALE)). The settings on record: 0/32 in 3.
Data set [39] concerns gria3a TALEN left T8C (synthetic (Xanthomonas TALE)). The following applies: mean of 3.
In data set [40] the test system is gria3a TALEN left T8G (synthetic (Xanthomonas TALE)). The following applies: mean of 3.
Data set [41] deals with kiss2 TALEN right (synthetic (Xanthomonas TALE)). The following applies: 69/69, as pair.
For data set [42], the system named is gria3a TALEN right (synthetic (Xanthomonas TALE)). The following applies: 49/55, as pair, zebrafish embryos.
Data set [43] has as its system tnikb TALEN right (synthetic (Xanthomonas TALE)). The settings on record: 18/39, as pair.
Data set [44] deals with spexin TALEN right (synthetic (Xanthomonas TALE)). The settings on record: 33/36, as pair.
The test system of data set [45] is gnrh3 TALEN right (synthetic (Xanthomonas TALE)). The following applies: 6/33, as pair, 21-bp spacer.
In data set [46] the test system is miR-451 TALEN right (synthetic (Xanthomonas TALE)). The settings on record: 2/47, as pair, 22-bp spacer.
Data set [47] has as its system miR-1-1 TALEN right (synthetic (Xanthomonas TALE)). The settings on record: 64/66, as pair.

In the case of “GTATGTATTCTTGGTCA (double strand) [miR-1-2 right site]”, the activity (% mutant alleles) in data set [1] was determined as 82.9.

As for “TGTTATTTTCTCCCCT (double strand) [tnikb left site]”, in data set [2], the activity (% mutant alleles) amounted to 46.2. In the case of “TTCATGTGCAAATTTGT (double strand) [kiss1r left site]”, in data set [3], the activity (% mutant alleles) turned out to be 51.2. Take “GTAATAATAGAACCTCA (double strand) [kiss1r right site]”: in [4], the activity (% mutant alleles) is 51.2. Sequence “CAGGCAGACAGATGGCA (double strand) [miR-214 right site]” showed an activity (% mutant alleles) in [5] of 53.2. Regarding “TGTTTTAGTTTTAGCATG (double strand) [gnrh3 left site]”, in [6], the activity (% mutant alleles) was 18.2. In [7], “TTTGTGTCCCATTCCT (double strand) [spexin left site]” registered an activity (% mutant alleles) of 91.7.

As to “GATGAAGACGGTTACAAA (double strand) [kiss2r right site]”, in data set [8], the activity (% mutant alleles) amounted to 6.7. Consider “TGATTCTCTTCATGTCTG (double strand) [kiss2 left site]”, for which the activity (% mutant alleles) in data set [9] amounted to 100. On to “TATGAACATATAAAAGC (double strand) [miR-1-2 left site]”, for which the activity (% mutant alleles) in [10] is 82.9. Regarding “TCGCTGTGACAGAGAGA (double strand) [miR-451 left site]”, the activity (% mutant alleles) in [11] is 4.3.

Regarding “CTTAGAAGGTAAGTTCA (double strand) [kiss1 right site]”, in data set [12], the activity (% mutant alleles) came out at 80. For “TAACCTAATAGTCATCTA (double strand) [kiss2r left site]”, the activity (% mutant alleles) in data set [13] was found to be 6.7. Take “TATGAACAAGAGCAGC (double strand) [miR-1-1 left site]”: the activity (% mutant alleles) in data set [14] is 97. In turn, “TGCAGAACTTCCTGCAC (double strand) [miR-214 left site]” displayed an activity (% mutant alleles) in data set [15] of 53.2. The sequence “TACACACAAACCCCTCT (double strand) [kiss1 left site]” came in with an activity (% mutant alleles) in data set [16] of 80. Take “TCGTCCAATAGCTTCTC (double strand) [gria3a left site]”: the activity (% mutant alleles) in data set [17] amounted to 84.2; in data set [18], 0.5; in data set [19], 30.7; in data set [20], 1.6; in data set [21], 71.9; in data set [22] it was 0. For the same sequence, the activity (% mutant alleles) in data set [23] worked out at 40.1; in data set [24], 82.3; in data set [25], 71.9; in data set [26], 33.3; in [27], 79.2; in [28], 2.1. For the same sequence, the activity (% mutant alleles) was found to be 76 in [29]; 2.2 in data set [30]; 63.1 in [31]; 17.9 in [32]; 12.1 in data set [33]; 52.6 in [34]. Moreover, the activity (% mutant alleles) is 20.8 in data set [35]; 3.1 in [36]; 65.6 in [37]; 0 in data set [38]; 21.9 in data set [39]; 14.6 in data set [40]. Sequence “CAGCTATGAGAGCAATA (double strand) [kiss2 right site]” had an activity (% mutant alleles) in data set [41] of 100. In turn, “GAGTTTCTGCTCTTTA (double strand) [gria3a right site]” returned an activity (% mutant alleles) in data set [42] of 89.1. “ATTTTTGAGCTGGTGGA (double strand) [tnikb right site]” came in with an activity (% mutant alleles) in data set [43] of 46.2. With “AATGTCATGCAATGTTA (double strand) [spexin right site]”, in data set [44], the activity (% mutant alleles) stood at 91.7. On to “GTCCAGTTGTTGCTGTTA (double strand) [gnrh3 right site]”, for which the activity (% mutant alleles) in [45] came out at 18.2.

On to “CTGAGTTTAGTAATGGA (double strand) [miR-451 right site]”, for which, in data set [46], the activity (% mutant alleles) amounted to 4.3.

Take “GTATGTATCCCAGGTGA (double strand) [miR-1-1 right site]”: the activity (% mutant alleles) in data set [47] worked out at 97.
